{
  "source": "patent US8008452B2",
  "about": "“Phosphorylated Ndr kinase” (Novartis Forschungesstiftung, Zweigniederlassung Friedrich …, priority 2002, dated 2011)",
  "molecules": {"B1": {"name": "S100B: bovine S100B, EF-hand Ca2+-binding protein, added with 1 mM CaCl2 (protein)", "chain": "SELEKAVVALIDVFHQYSGREGDKHKLKKSELKELINNELSHFLEEIKEQEVVDKVMETLDSDGDGECDFQEFMAFVAMITTACHEFFEHE"}, "B2": {"name": "hMOB1: human MOB1 (GI: 11691898, SEQ ID NO:5), myc-tagged, cotransfected with HA-NDR1 (protein)", "chain": "MSFLFSSRSSKTFKPKKNIPEGSHQYELLKHAEATLGSGNLRQAVMLPEGEDLNEWIAVNTVDFFNQINMLYGTITEFCTEASCPVMSAGPRYEYHWADGTNIKKPIKCSAPKYIDYLMTWVQDQLDDETLFPSKIGVPFPKNFMSVAKTILKRLFRVYAHIYHQHFDSVMQLQEEAHLNTSFKHFIFFVQEFNLIDRRELAPLQELIEKLGSKDR", "modifications": "left off: small tags and cut ends"}, "B3": {"name": "GST-hMOB1: GST fusion of hMOB1 added to HA-NDR kinase reactions (protein)", "chain": "B2 chain", "modifications": "left off: a dimerising Fc or GST", "notes": "GST fusion of hMOB1 added to HA-NDR kinase reactions"}},
  "key": {"[1]": {"biological_target": "T1, NDR2 (Homo sapiens, UniProt Q9Y2H1)", "T1 construct": "made in house; host or cells: E. coli (inferred from b139 and b74)", "T1 sequence (Q9Y2H1 whole entry, one chain of several)": "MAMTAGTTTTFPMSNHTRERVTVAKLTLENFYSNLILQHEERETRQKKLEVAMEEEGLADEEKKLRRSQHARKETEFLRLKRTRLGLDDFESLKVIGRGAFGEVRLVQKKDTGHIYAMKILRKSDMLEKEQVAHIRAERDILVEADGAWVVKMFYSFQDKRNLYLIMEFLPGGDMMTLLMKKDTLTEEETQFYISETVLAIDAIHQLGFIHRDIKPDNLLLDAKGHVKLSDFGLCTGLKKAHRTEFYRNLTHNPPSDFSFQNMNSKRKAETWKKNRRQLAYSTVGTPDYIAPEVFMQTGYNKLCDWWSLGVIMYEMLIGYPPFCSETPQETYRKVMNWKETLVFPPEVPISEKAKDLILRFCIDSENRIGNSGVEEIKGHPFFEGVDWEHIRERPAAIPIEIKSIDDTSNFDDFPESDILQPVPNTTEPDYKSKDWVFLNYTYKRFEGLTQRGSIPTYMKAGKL", "assay": "NDR2 specific kinase activity in vitro with Ca2+/S100B", "type": "biochemical", "details": "concentration dependent", "method": "(§1) All other procedures (including bacterial expression, kinase assays, immunodetection and mass spectrometry) were carried out essentially as described in the Methodology section above.\n(§2) The sequence conservation between NDR1 and NDR2 also encompasses the previously defined S100 binding domain of NDR1. Therefore, the in vitro effect of Ca2+/S100B on NDR2 activity was measured in a time and concentration dependent manner. Ca2+/S100B increases the rate of NDR2 autophosphorylation by ˜2-fold after 4 hours of incubation, as measured by mass spectrometry anlaysis, and it stimulates the specific NDR activity in a concentration dependent manner up to ˜4-fold. […] After in vitro incubation of GST-NDR2 in the presence and absence of Ca2+/S100B, the proteins were digested with trypsin, and the resultant mixture was analysed by ESI-MS-MS in a −79 precursor scan, measuring the mass charge ratio (m/z) of all peptide species that liberate a single phosphate group after fragmentation. The identity of 5 NDR2 derived phosphopeptides could be determined in both samples, the GST-NDR2 and the GST-NDR2/Ca2+/S100B."}, "[2]": {"system": "GST-NDR1", "assay": "Immunodetection of GST-NDR1 phosphorylated on Ser281 or Thr444 after in vitro autophosphorylation", "type": "biochemical, human", "details": "in vitro autophosphorylation with or without Ca2+/S100B", "method": "Either 1 microgram GST-NDR1 or HA-NDR1 immunoprecipitated from 100 microgram COS-1 detergent extracts as described above was separated on 10% SDS-PAGE and immunoblotted 2 h at RT or overnight at 4° C. with anti-Ser281P antisera (1:1000) in the presence of 50 microg/ml competing unphosphopeptide or anti-Thr444P purified antibody (1:500). Both antibodies were detected with horseradish peroxidase-conjugated donkey anti-rabbit Ig antibody (Amersham biosciences) and developed by ECL (chemiluminescence; Amersham Pharmacia Biotech).\nTo reliably quantify the effect of S100B on NDR1 phosphorylation status, rabbit polyclonal antibodies were raised against phosphoepitopes comprising Ser281 or Thr444. GST-NDR1 mutants were treated essentially as described in Example 2 and detected either with anti-NDR1_C-term antiserum or polyclonal antibodies recognising NDR1 phosphorylated on Ser281 or Thr444."}, "[3]": {"biological_target": "T2, GST-NDR1 (Homo sapiens, UniProt Q15208)", "T2 construct": "made in house; host or cells: E. coli BL21-DE3-pRep4", "assay": "GST-NDR1 kinase assay (peptide kinase assay)", "type": "biochemical", "method": "1 microgram of purified recombinant GST-NDR1 wild type and mutants (without further treatment or autophosphorylated for 2 h in the presence or absence of 1 mM CaCl2 and […] (Sigma)) were assayed in 20 microliter of reaction mixture containing 20 mM Tris-HCl pH 7.5, 10 mM MgCl2, 1 mM DTT, 100 microM [gamma-^32P]ATP (˜0.5 microCi/microliter), and 1 mM NDR1 substrate peptide ([…]; SEQ ID NO:22). After 30 mins incubation at 30° C., reactions were stopped with 50 mM EDTA, and 10 microliters of reaction mixture were spotted onto 2 cm^2 squares of P81 phosphocellulose paper (Whatman). These were subsequently washed for 4×5 min and 3×20 min in 1% phosphoric acid and once in acetone before counting in a liquid scintillation counter. One unit of NDR1 activity was defined as the amount which catalyses the phosphorylation of 1 nmol peptide substrate in 1 min.\nSpecific activity of GST-NDR1 mutants was also measured by a peptide kinase assay as described above. For this purpose, 1 microgram of purified GST-NDR1 wild type and alanine mutants were left without further treatment or autophosphorylated for 2 h in the presence or absence of 1 mM CaCl2 and […]."}, "[4]": {"biological_target": "T1, NDR2", "assay": "GST-NDR2 in vitro autophosphorylation with Ca2+/S100B", "type": "biochemical", "details": "after 4 hours of incubation", "method": "as §1, §2"}, "[5]": {"biological_target": "T2, GST-NDR1", "assay": "GST-NDR1 in vitro autophosphorylation, incorporated 32P by Cerenkov counting", "type": "biochemical", "details": "on both Ser281 and Thr444", "method": "BL21-DE3-pRep4 E. coli strain was transformed with the pGEX-2T_NDR1 wild type or mutant plasmids. BL21-DE3 is a protease-deficient E. coli strain and pRep4 is a Laclq repressor-bearing plasmid both available commercially. Optionally, if desired, an E. coli strain comprising GroESL can be used, which expresses a chaperone protein that stabilizes the kinase. Mid-logarithmic phase cells were induced with 0.5 mM isopropyl beta-D-thiogalactopyranoside (IPTG) for 4 hours at 30° C. Bacteria were lysed using a French press in the presence of 1 mg/ml lysosyme, and the fusion proteins were purified on glutathione-agarose (Amersham Pharmacia Biotech) as described by the manufacturers. Recombinant proteins were assayed for kinase activity as described below and autophosphorylation was determined after SDS-PAGE separation either by Cerenkov counting or by exposure to a PhosphorImager screen followed by analysis with ImageQuant software (Molecular Dynamics).\nIn brief, 1 microgram of purified GST-NDR1 (in solution ˜0.5 microM) wild type, kinase dead (K118A), and alanine mutants of phosphorylation residues Thr74, Ser281, and Thr444 were autophosphorylated for 2 hours in vitro without further additions or in the presence of 1 mM CaCl2 and 10 microM bovine S100B. Proteins were visualized on SDS gels using Coomassie Blue R-350 stained SDS-PAGE gel, and [gamma-^32P]ATP-labelled proteins were visualized by autoradiography of the gels developed on a Phosphorimager screen. The amount of incorporated ^32P was quantified by Cerenkov counting."}, "[6]": {"system": "HA-NDR1", "assay": "HA-NDR1 kinase assay on 12CA5 immunoprecipitates from transfected, treated COS-1 cells", "type": "cell-based, human", "details": "COS1 cells cotransfected with HA-NDR1, treated with OA; versus empty vector", "method": "In some experiments, the cells were treated for 60 min with 1 microM okadaic acid in 0.1% N,N-dimethylformamide (DMF) (Alexis Corp.), 50 microM BAPTA-AM (1,2-bis (o-aminophenoxy) ethane-N,N,N′,N′-tetraacetic acid tetra (acetoxy-methyl)ester) in 0.1% diimethylsulfoxide (DMSO; Sigma), or 20 microM thapsigargin in 0.1% DMSO (Alomone) 24 hours after transfection.\nTransfected and treated COS-1 cells were washed once with ice-cold PBS, and harvested by rubber policeman in 1 ml ice-cold PBS containing 1 mM Na3VO4 and 20 mM beta-glycerophosphate before lysis in 500 microliters of IP buffer (20 mM Tris-HCl pH 8.0, 150 mM NaCl, 1% Nonidet P-40, 10% glycerol, 1 mM Na3VO4, 20 mM beta-glycerolphosphate, 1 microM microcystin-LR, 50 mM NaF, 0.5 mM PMSF, 4 microM leupeptin, 1 mM benzamidine, and 1 tablet/10 ml IP of Complete protease inhibitors (Roche)). Lysates were centrifuged at 20 000 g for 20 min and triplicate aliquots (200 microg) of supernatant were precleared with protein A-Sepharose (Amersham Pharmacia Biotech) for 60 min and mixed subsequently for 3 h at 4° C. with 12CA5 antibody prebound to protein A-Sepharose (˜1 microg antibody bound to 2 microl beads). The beads were then washed twice with IP buffer, once for 10 min with IP buffer containing 1 M NaCl, once again for 10 min with IP buffer, and finally twice with 20 mM Tris-HCl pH 7.5 containing 4 microM leupeptin and 1 mM benzamidine. […] After 60 min incubation at 30° C., 15 microliters of supernatant were removed, and phosphate incorporation into the substrate peptide determined as described for GST-NDR1 above. […]\nTo test whether hMOB1 plays a role in NDR activation, myc-hMOB1 or the empty vector was cotransfected with HA-NDR1 in COS1 cells and treated with OA. […] The reactions were resolved on a 10% SDS PAGE and the radioactivity visualised by using a phosphoimager."}, "[7]": {"biological_target": "T3, HA-NDR (Homo sapiens, UniProt Q15208)", "T3 construct": "expressed in transfected cells; host or cells: COS-1 (HA-NDR1)", "T3 sequence (Q15208 whole entry, one chain of several)": "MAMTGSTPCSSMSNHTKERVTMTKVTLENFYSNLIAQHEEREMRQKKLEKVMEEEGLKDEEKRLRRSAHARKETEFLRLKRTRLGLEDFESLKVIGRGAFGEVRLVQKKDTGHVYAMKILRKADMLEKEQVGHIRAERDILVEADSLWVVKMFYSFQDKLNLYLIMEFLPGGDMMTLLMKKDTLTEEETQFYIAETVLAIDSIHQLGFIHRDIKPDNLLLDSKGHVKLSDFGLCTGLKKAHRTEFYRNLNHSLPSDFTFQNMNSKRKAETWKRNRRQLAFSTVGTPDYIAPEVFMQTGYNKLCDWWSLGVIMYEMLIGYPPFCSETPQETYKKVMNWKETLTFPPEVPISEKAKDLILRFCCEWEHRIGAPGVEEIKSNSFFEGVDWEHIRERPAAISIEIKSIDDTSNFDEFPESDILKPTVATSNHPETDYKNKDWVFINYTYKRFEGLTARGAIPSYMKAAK", "assay": "Autophosphorylation of immunoprecipitated HA-NDR with added GST-MOB or GST", "type": "biochemical", "details": "added to HA-NDR kinase reactions; GST as control", "method": "To test whether hMOB1 plays a role in NDR activation, myc-hMOB1 or the empty vector was cotransfected with HA-NDR1 in COS1 cells and treated with OA. 12CA5 immunoprecipitates were then assayed using the peptide kinase assay for HA-NDR kinase activity. […] GST-MOB and GST respectively was added to immunoprecipitated HA-NDR and kinase reaction were performed. The reactions were resolved on a 10% SDS PAGE and the radioactivity visualised by using a phosphoimager."}},
  "data": [
    {"molecule": "B1", "values": [
      {"measurement": "stimulation of specific NDR activity (NDR2)", "setting": "[1]", "result": "~4", "unit": "fold"},
      {"measurement": "phosphorylation of GST-NDR1 on Ser281 and Thr444 (phosphospecific antibodies)", "setting": "[2]", "result": "enhance phosphorylation on both Ser281 and Thr444"},
      {"measurement": "increase in kinase activity of wild-type GST-NDR1 on addition of S100B", "setting": "[3]", "result": "~5", "unit": "fold"},
      {"measurement": "increase of the rate of NDR2 autophosphorylation", "setting": "[4]", "result": "~2", "unit": "fold"},
      {"measurement": "increase in autophosphorylation of wild-type GST-NDR1 on addition of S100B", "setting": "[5]", "result": "~2", "unit": "fold"}
    ]},
    {"molecule": "B2", "values": [
      {"measurement": "stimulation of OA stimulated NDR kinase activity by cotransfected myc-hMOB1", "setting": "[6]", "result": "two to threefold stimulation"}
    ]},
    {"molecule": "B3", "values": [
      {"measurement": "effect on NDR autophosphorylation activity", "setting": "[7]", "result": "stimulated NDR autophosphorylation activity"}
    ]}
  ]
}
